The results in this text go back to the supplement of paper PMC10567573.

The chains are these.
B1: FCHSD1 (parent)
chain: LEAAEVILEHAHRGEQTTSQVSWE
B2: PBXIP1 (parent)
chain: LQQLRARLQGLEADCVRGPDGVCL
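Also: lentivirally expressed fusions sorted by FACS into six bins by GFP to DsRed ratio, PSI derived from sequencing read proportions per bin multiplied by bin number.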

Variants of B1 are the subject of one data set. Kind of data set: protein stability index of a GFP-peptide fusion (GPS, HEK-293T) (PSI 1-6); higher = more stable. As to conditions: c terminus: a fixed tail appended.
Take LEAAEVILEHTHRGEQTTSQVSWE: the protein stability index stood at 3.04.
On the same count and under the same terms, the value for LEAAEVILEHLHRGEQTTSQVSWE was 4.77; that for LEAAEVILEHSHRGEQTTSQVSWE was 4.12; that for LEAAEVILEHEHRGEQTTSQVSWE was 4.69.
The same measure, in the same setting: the value for LEAAEVILEHDHRGEQTTSQVSWE was 4.97; that for LEAAEVILEHCHRGEQTTSQVSWE was 4.14.
For the variant LEAAEVILEHIHRGEQTTSQVSWE, the protein stability index was found to be 3.33.
LEAAEVILEHWHRGEQTTSQVSWE: the protein stability index came to 3.23.
With LEAAEVILEHFHRGEQTTSQVSWE, the protein stability index came to 3.27.
On the same count and under the same terms, the value for LEAAEVILEHRHRGEQTTSQVSWE was 4.71.
With LEAAEVILEHHHRGEQTTSQVSWE, the protein stability index was found to be 4.05.
On to LEAAEVILEHPHRGEQTTSQVSWE, for which the protein stability index is 5.38.
For the variant LEAAEVILEHAHRGEQTTSQVSRE, the protein stability index was 4.58.
The same measure, in the same setting: then LEAAEVILEHAHRGEQTTSQVSME, with 4.23.
As for LEAAEVILEHAHRGEQTTSQVSNE, the protein stability index amounted to 3.89.
For LEAAEVILEHAHRGEQTTSQVSLE, the protein stability index was 5.12.
Same read-out and setting: the value for LEAAEVILEHAHRGEQTTSQVSHE was 5.61; that for LEAAEVILEHAHRGEQTTSQVSYE was 4.71.
Take LEAAEVILEHAHRGEQTTSQVSTE: the protein stability index came out at 4.9.
Still for that read-out and setting: then LEAAEVILEHAHRGEQTTSQVSEE, with 5.79.
Same read-out and setting: the value for LEAAEVILEHAHRGEQTTSQVSCE was 3.4; that for LEAATVILEHAHRGEQTTSQVSWE was 4.38; that for LEAASVILEHAHRGEQTTSQVSWE was 4.1.
For the variant LEAAQVILEHAHRGEQTTSQVSWE, the protein stability index amounted to 4.2.
For the variant LEAALVILEHAHRGEQTTSQVSWE, the protein stability index was found to be 1.11.
The same measure, in the same setting: the value for LEAADVILEHAHRGEQTTSQVSWE was 4.31; that for LEAANVILEHAHRGEQTTSQVSWE was 3.63; that for LEAAHVILEHAHRGEQTTSQVSWE was 3.6.
LEAAEVILEGAHRGEQTTSQVSWE: the protein stability index came out at 3.87.
Same read-out and setting: then LEAAEVILEFAHRGEQTTSQVSWE, with 3.05; and LEAAEVILECAHRGEQTTSQVSWE, with 3.63; and LEAAEVILEPAHRGEQTTSQVSWE, with 4.41.
The same measure, in the same setting: the value for LEAAEVILEHAHRGEQTTSQCSWE was 4.62; that for LEAAEVILEHAHRGEQTTSQTSWE was 4.64; that for LEAAEVILEHAHRGEQTTSQQSWE was 4.44.
As for LEAAEVILEHAHRGEQTTSQGSWE, the protein stability index stood at 4.94.
On to LEAAEVILEHAHRGEQTTSQNSWE, for which the protein stability index worked out at 4.92.
The same measure, in the same setting: the value for LEAAEVILEHAHRGEQTTSQRSWE was 4.18; that for LEAAEVILEHAHRGEQTTSQISWE was 3.5.
Take LEAAEVILEHAHRGEQTTSQFSWE: the protein stability index is 3.3.
As to LEAAEVILEHAHRGEQTTSQYSWE, the protein stability index was 3.9.
In the case of LEAAEVILVHAHRGEQTTSQVSWE, the protein stability index was found to be 2.5.
Still for that read-out and setting: the value for LEAAEVILSHAHRGEQTTSQVSWE was 4.4; that for LEAAEVILKHAHRGEQTTSQVSWE was 4.19.
As for LEAAEVILCHAHRGEQTTSQVSWE, the protein stability index came to 3.04.
Same read-out and setting: the value for LEAAEVILMHAHRGEQTTSQVSWE was 2.66; that for LEAAEVILRHAHRGEQTTSQVSWE was 3.39; that for LEAAEVILWHAHRGEQTTSQVSWE was 2.05.
On to LEAAEVILEHAHRGEQTVSQVSWE, for which the protein stability index came to 3.88.
As to LEAAEVILEHAHRGEQTFSQVSWE, the protein stability index was 2.98.
With LEAAEVILEHAHRGEQTGSQVSWE, the protein stability index was found to be 4.38.
With LEAAEVILEHAHRGEQTRSQVSWE, the protein stability index stood at 3.93.
Same read-out and setting: then LEAAEVILEHAHRGEQTASQVSWE, with 3.72; and LEAAEVCLEHAHRGEQTTSQVSWE, with 4.28; and LEAAEVWLEHAHRGEQTTSQVSWE, with 4.24.
Take LEAAEVQLEHAHRGEQTTSQVSWE: the protein stability index amounted to 4.55.
The same measure, in the same setting: the value for LEAAEVYLEHAHRGEQTTSQVSWE was 4.7; that for LEAAEVGLEHAHRGEQTTSQVSWE was 5.1.
The same measure, in the same setting: then LEAAEVHLEHAHRGEQTTSQVSWE, with 5.15; and LEAAEVSLEHAHRGEQTTSQVSWE, with 4.92; and LEAAEVDLEHAHRGEQTTSQVSWE, with 5.62.
Same read-out and setting: the value for LEAREVILEHAHRGEQTTSQVSWE was 3.59; that for LEAVEVILEHAHRGEQTTSQVSWE was 3.15.
With LEADEVILEHAHRGEQTTSQVSWE, the protein stability index was determined as 3.59.
Regarding LEAGEVILEHAHRGEQTTSQVSWE, the protein stability index turned out to be 5.06.
Same read-out and setting: then LEATEVILEHAHRGEQTTSQVSWE, with 3.82.
On the same count and under the same terms, the value for LEAPEVILEHAHRGEQTTSQVSWE was 5.19; that for LEAFEVILEHAHRGEQTTSQVSWE was 2.35.
As for QEAAEVILEHAHRGEQTTSQVSWE, the protein stability index worked out at 4.92.
For FEAAEVILEHAHRGEQTTSQVSWE, the protein stability index is 3.33.
On the same count and under the same terms, then SEAAEVILEHAHRGEQTTSQVSWE, with 4; and CEAAEVILEHAHRGEQTTSQVSWE, with 4.8.
The same measure, in the same setting: then REAAEVILEHAHRGEQTTSQVSWE, with 4.52; and IEAAEVILEHAHRGEQTTSQVSWE, with 4.12; and WEAAEVILEHAHRGEQTTSQVSWE, with 3.35.

In the next data set the parent is B2. Described as above. Particulars: c terminus: a fixed tail appended.
Regarding LQQLRARLQGLEADCVRGPDGVPL, the protein stability index amounted to 2.52.
As for LQQLRARLQGLEADCVRGPDGVYL, the protein stability index is 2.29.
As to LQQLRARLQGLEADCVRGPDGVNL, the protein stability index turned out to be 1.65.
Same read-out and setting: the value for LQQLRARLQGLEADCVRGPDGVQL was 2.39.
LQQLRARLQGLEADCVRGPDGVVL: the protein stability index was 1.74.
In the case of LQQLRARLQGLEADCVRGPDGVWL, the protein stability index is 3.01.
For the variant LQQLRARLQGLEADCVRGPDGVSL, the protein stability index is 1.96.
Same read-out and setting: then LQQLRARLQGLEADCVRGPDGVCS, with 2.89.
In the case of LQQLRARLQGLEADCVRGPDGVCT, the protein stability index worked out at 1.74.
For the variant LQQLRARLQGLEADCVRGPDGVCV, the protein stability index turned out to be 1.79.
Consider LQQLRARLQGLEADCVRGPDGVCY, for which the protein stability index is 2.34.
In the case of LQQLRARLQGLEADCVRGPDGVCW, the protein stability index came to 2.15.
For LQQLRARLQGLEADCVRGPDGVCN, the protein stability index was 3.04.
Same read-out and setting: then LQQLRARLQGLEADCVRGPDGVCR, with 2.65; and LQQLRARLQGLEADCVRGPDGVCH, with 2.97; and LQQLRARLQGLEADCVRGPDGVCI, with 1.94.
On the same count and under the same terms, the value for LQQLRARLQGLEADCVRGPDGVCP was 2.79.
Take LQQLRARLQGLEADCVRGPDGVCQ: the protein stability index turned out to be 3.1.
Same read-out and setting: then LQQLRARLQGLEADCVRGPDGVCD, with 3.08.
